The results in this text go back to patent US20110263827A1 (AbbVie / Abbott, published 2011).

Test [1] concerns the target T1, EGFR (UniProt P00533 25-645, limits assumed, biotinylated).
T1 construct: ELISA antigen; construct not described
Description: direct bind ELISA, C-term VD. (In general: An ELISA detects its analyte on a solid surface through an enzyme-linked reagent.)

In test [2] the target is T2, HGF (UniProt P14210 32-728, limits assumed, biotinylated).
T2 construct: ELISA antigen
Description: direct bind ELISA, N-term VD.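 Further: antibody or DVD-Ig preparations bound to immobilized target antigen on ELISA plates, 1 h at room temperature, TMB detection read as absorbance at 450 nm.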

For a further test, the target named is T3, IGF1R (UniProt P08069 31-932, limits assumed, biotinylated).
T3 construct: ELISA antigen
Briefly: direct bind ELISA, N-term VD.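 Further: antibody or DVD-Ig preparations bound to immobilized target antigen on ELISA plates, 1 h at room temperature, TMB detection read as absorbance at 450 nm.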

The target of test [3] is T2, HGF. Description: direct bind ELISA, C-term VD.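 Further: ELISA with antibody or DVD-Ig preparations applied to target antigen-coated plates for 1 h at room temperature, TMB colour development, absorbance read at 450 nm.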
Test [4] has as its target T1, EGFR. Description: direct bind ELISA, N-term VD.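 Further: antibody or DVD-Ig preparations bound to immobilized target antigen on ELISA plates, 1 h at room temperature, TMB detection read as absorbance at 450 nm.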

B1: DVD778 (bispecific antibody)
VH: QVQLVESGGGLVKPGGSLRLSCAASGFTFSDYYMSWIRQAPGKGLEWVSYISSSGSTIYYADSVKGRFTISRDNAKNSLYLQMNSLRAEDTAVYYCARDEYNSGWYVLFDYWGQGTLVTVSSASTKGPSVFPLAPQVQLQESGPGLVKPSQTLSLTCTVSGYSISSDFAWNWIRQPPGKGLEWMGYISYSGNTRYQPSLKSRITISRDTSKNQFFLKLNSVTAADTATYYCVTAGRGFPYWGQGTLVTVSS
VL: DIQMTQSPSSVSASVGDRVTITCRASQGISSWLAWYQQKPGKAPNLLIYEASSLQSGVPSRFGGSGSGTDFTLTISSLQPEDFATYYCQQANGFPWTFGQGTKVEIKRTVAAPSVFIFPPDIQMTQSPSSMSVSVGDRVTITCHSSQDINSNIGWLQQKPGKSFKGLIYHGTNLDDGVPSRFSGSGSGTDYTLTISSLQPEDFATYYCVQYAQFPWTFGGGTKLEIKR
notes: DVD-Ig; HC L, LC L; variable parts only
In general, EC50 refers to the midpoint of the concentration-response curve. Higher therefore signals lower potency in that assay. Turning to B1, the 50% effective concentration (EC50) with EGFR [1] was determined as 50.3 nM; with HGF [2], 0.17 nM.

B2: DVD838 (bispecific antibody)
VH: QVQLVESGGGLVKPGGSLRLSCAASGFTFSDYYMSWIRQAPGKGLEWVSYISSSGSTIYYADSVKGRFTISRDNAKNSLYLQMNSLRAEDTAVYYCARDEYNSGWYVLFDYWGQGTLVTVSSASTKGPQVQLQESGPGLVKPSQTLSLTCTVSGYSISSDFAWNWIRQPPGKGLEWMGYISYSGNTRYQPSLKSRITISRDTSKNQFFLKLNSVTAADTATYYCVTAGRGFPYWGQGTLVTVSS
VL: DIQMTQSPSSVSASVGDRVTITCRASQGISSWLAWYQQKPGKAPNLLIYEASSLQSGVPSRFGGSGSGTDFTLTISSLQPEDFATYYCQQANGFPWTFGQGTKVEIKRTVAAPSVFIFPPDIQMTQSPSSMSVSVGDRVTITCHSSQDINSNIGWLQQKPGKSFKGLIYHGTNLDDGVPSRFSGSGSGTDYTLTISSLQPEDFATYYCVQYAQFPWTFGGGTKLEIKR
notes: DVD-Ig; HC S, LC L; variable parts only
Regarding B2, the half-maximal effective concentration (EC50) with EGFR [1] came out at 57.7 nM; with HGF [2], 0.19 nM.

B3: DVD808 (bispecific antibody)
VH: QVQLVESGGGLVKPGGSLRLSCAASGFTFSDYYMSWIRQAPGKGLEWVSYISSSGSTIYYADSVKGRFTISRDNAKNSLYLQMNSLRAEDTAVYYCARDEYNSGWYVLFDYWGQGTLVTVSSASTKGPSVFPLAPQVQLQESGPGLVKPSQTLSLTCTVSGYSISSDFAWNWIRQPPGKGLEWMGYISYSGNTRYQPSLKSRITISRDTSKNQFFLKLNSVTAADTATYYCVTAGRGFPYWGQGTLVTVSS
VL: DIQMTQSPSSVSASVGDRVTITCRASQGISSWLAWYQQKPGKAPNLLIYEASSLQSGVPSRFGGSGSGTDFTLTISSLQPEDFATYYCQQANGFPWTFGQGTKVEIKRTVAAPDIQMTQSPSSMSVSVGDRVTITCHSSQDINSNIGWLQQKPGKSFKGLIYHGTNLDDGVPSRFSGSGSGTDYTLTISSLQPEDFATYYCVQYAQFPWTFGGGTKLEIKR
notes: DVD-Ig; HC L, LC S; variable parts only
As for B3, the figures for the concentration giving a half-maximal response (EC50) with EGFR [1] and with HGF [2] were 96.4 nM and 0.14 nM, respectively.

B4: DVD836 (bispecific antibody)
VH: EVQLLESGGGLVQPGGSLRLSCTASGFTFSSYAMNWVRQAPGKGLEWVSAISGSGGTTFYADSVKGRFTISRDNSRTTLYLQMNSLRAEDTAVYYCAKDLGWSDSYYYYYGMDVWGQGTTVTVSSASTKGPQVQLQESGPGLVKPSQTLSLTCTVSGYSISSDFAWNWIRQPPGKGLEWMGYISYSGNTRYQPSLKSRITISRDTSKNQFFLKLNSVTAADTATYYCVTAGRGFPYWGQGTLVTVSS
VL: DIQMTQFPSSLSASVGDRVTITCRASQGIRNDLGWYQQKPGKAPKRLIYAASRLHRGVPSRFSGSGSGTEFTLTISSLQPEDFATYYCLQHNSYPCSFGQGTKLEIKRTVAAPSVFIFPPDIQMTQSPSSMSVSVGDRVTITCHSSQDINSNIGWLQQKPGKSFKGLIYHGTNLDDGVPSRFSGSGSGTDYTLTISSLQPEDFATYYCVQYAQFPWTFGGGTKLEIKR
notes: as for B2
As for B4, the figures for the EC50 with EGFR [1] and with IGF1R were 56.8 nM and 0.51 nM, respectively.

B5: DVD777 (bispecific antibody)
VH: QVQLQESGPGLVKPSQTLSLTCTVSGYSISSDFAWNWIRQPPGKGLEWMGYISYSGNTRYQPSLKSRITISRDTSKNQFFLKLNSVTAADTATYYCVTAGRGFPYWGQGTLVTVSSASTKGPSVFPLAPQVQLVESGGGLVKPGGSLRLSCAASGFTFSDYYMSWIRQAPGKGLEWVSYISSSGSTIYYADSVKGRFTISRDNAKNSLYLQMNSLRAEDTAVYYCARDEYNSGWYVLFDYWGQGTLVTVSS
VL: DIQMTQSPSSMSVSVGDRVTITCHSSQDINSNIGWLQQKPGKSFKGLIYHGTNLDDGVPSRFSGSGSGTDYTLTISSLQPEDFATYYCVQYAQFPWTFGGGTKLEIKRTVAAPSVFIFPPDIQMTQSPSSVSASVGDRVTITCRASQGISSWLAWYQQKPGKAPNLLIYEASSLQSGVPSRFGGSGSGTDFTLTISSLQPEDFATYYCQQANGFPWTFGQGTKVEIKR
notes: as for B1
B5: the EC50 was 0.96 nM with HGF [3] and 5.13 nM in the test with EGFR [4].

B6: DVD807 (bispecific antibody)
VH: QVQLQESGPGLVKPSQTLSLTCTVSGYSISSDFAWNWIRQPPGKGLEWMGYISYSGNTRYQPSLKSRITISRDTSKNQFFLKLNSVTAADTATYYCVTAGRGFPYWGQGTLVTVSSASTKGPSVFPLAPQVQLVESGGGLVKPGGSLRLSCAASGFTFSDYYMSWIRQAPGKGLEWVSYISSSGSTIYYADSVKGRFTISRDNAKNSLYLQMNSLRAEDTAVYYCARDEYNSGWYVLFDYWGQGTLVTVSS
VL: DIQMTQSPSSMSVSVGDRVTITCHSSQDINSNIGWLQQKPGKSFKGLIYHGTNLDDGVPSRFSGSGSGTDYTLTISSLQPEDFATYYCVQYAQFPWTFGGGTKLEIKRTVAAPDIQMTQSPSSVSASVGDRVTITCRASQGISSWLAWYQQKPGKAPNLLIYEASSLQSGVPSRFGGSGSGTDFTLTISSLQPEDFATYYCQQANGFPWTFGQGTKVEIKR
notes: as for B3
On to B6, for which the EC50 in the test with HGF [3] came out at 9.24 nM; with EGFR [4], 4.85 nM.

B7: DVD837 (bispecific antibody)
VH: QVQLQESGPGLVKPSQTLSLTCTVSGYSISSDFAWNWIRQPPGKGLEWMGYISYSGNTRYQPSLKSRITISRDTSKNQFFLKLNSVTAADTATYYCVTAGRGFPYWGQGTLVTVSSASTKGPQVQLVESGGGLVKPGGSLRLSCAASGFTFSDYYMSWIRQAPGKGLEWVSYISSSGSTIYYADSVKGRFTISRDNAKNSLYLQMNSLRAEDTAVYYCARDEYNSGWYVLFDYWGQGTLVTVSS
VL: DIQMTQSPSSMSVSVGDRVTITCHSSQDINSNIGWLQQKPGKSFKGLIYHGTNLDDGVPSRFSGSGSGTDYTLTISSLQPEDFATYYCVQYAQFPWTFGGGTKLEIKRTVAAPSVFIFPPDIQMTQSPSSVSASVGDRVTITCRASQGISSWLAWYQQKPGKAPNLLIYEASSLQSGVPSRFGGSGSGTDFTLTISSLQPEDFATYYCQQANGFPWTFGQGTKVEIKR
notes: as for B2
In the case of B7, the values for the EC50 with HGF [3] and with EGFR [4] were 1.29 nM and 4.51 nM, respectively.

B8: DVD336 (bispecific antibody)
VH: QVQLVESGGGLVKPGGSLRLSCAASGFTFSDYYMSWIRQAPGKGLEWVSYISSSGSTIYYADSVKGRFTISRDNAKNSLYLQMNSLRAEDTAVYYCARDEYNSGWYVLFDYWGQGTLVTVSSASTKGPQVQLQESGPGLVKPSQTLSLTCTVSGYSISSDFAWNWIRQPPGKGLEWMGYISYSGNTRYQPSLKSRITISRDTSKNQFFLKLNSVTAADTATYYCVTAGRGFPYWGQGTLVTVSS
VL: DIQMTQSPSSVSASVGDRVTITCRASQGISSWLAWYQQKPGKAPNLLIYEASSLQSGVPSRFGGSGSGTDFTLTISSLQPEDFATYYCQQANGFPWTFGQGTKVEIKRTVAAPDIQMTQSPSSMSVSVGDRVTITCHSSQDINSNIGWLQQKPGKSFKGLIYHGTNLDDGVPSRFSGSGSGTDYTLTISSLQPEDFATYYCVQYAQFPWTFGGGTKLEIKR
notes: DVD-Ig; HC S, LC S; variable parts only
Take B8: the EC50 with EGFR [1] stood at 332 nM; with HGF [2], 0.15 nM.

B9: DVD335 (bispecific antibody)
VH: QVQLQESGPGLVKPSQTLSLTCTVSGYSISSDFAWNWIRQPPGKGLEWMGYISYSGNTRYQPSLKSRITISRDTSKNQFFLKLNSVTAADTATYYCVTAGRGFPYWGQGTLVTVSSASTKGPQVQLVESGGGLVKPGGSLRLSCAASGFTFSDYYMSWIRQAPGKGLEWVSYISSSGSTIYYADSVKGRFTISRDNAKNSLYLQMNSLRAEDTAVYYCARDEYNSGWYVLFDYWGQGTLVTVSS
VL: DIQMTQSPSSMSVSVGDRVTITCHSSQDINSNIGWLQQKPGKSFKGLIYHGTNLDDGVPSRFSGSGSGTDYTLTISSLQPEDFATYYCVQYAQFPWTFGGGTKLEIKRTVAAPDIQMTQSPSSVSASVGDRVTITCRASQGISSWLAWYQQKPGKAPNLLIYEASSLQSGVPSRFGGSGSGTDFTLTISSLQPEDFATYYCQQANGFPWTFGQGTKVEIKR
notes: as for B8
B9: the values for the EC50 in the test with HGF [3] and with EGFR [4] were 159 nM and 3.77 nM, respectively.

B10: DVD806 (bispecific antibody)
VH: EVQLLESGGGLVQPGGSLRLSCTASGFTFSSYAMNWVRQAPGKGLEWVSAISGSGGTTFYADSVKGRFTISRDNSRTTLYLQMNSLRAEDTAVYYCAKDLGWSDSYYYYYGMDVWGQGTTVTVSSASTKGPSVFPLAPQVQLQESGPGLVKPSQTLSLTCTVSGYSISSDFAWNWIRQPPGKGLEWMGYISYSGNTRYQPSLKSRITISRDTSKNQFFLKLNSVTAADTATYYCVTAGRGFPYWGQGTLVTVSS
VL: DIQMTQFPSSLSASVGDRVTITCRASQGIRNDLGWYQQKPGKAPKRLIYAASRLHRGVPSRFSGSGSGTEFTLTISSLQPEDFATYYCLQHNSYPCSFGQGTKLEIKRTVAAPDIQMTQSPSSMSVSVGDRVTITCHSSQDINSNIGWLQQKPGKSFKGLIYHGTNLDDGVPSRFSGSGSGTDYTLTISSLQPEDFATYYCVQYAQFPWTFGGGTKLEIKR
notes: as for B3
Take B10: the EC50 with EGFR [1] came to 53.8 nM; with IGF1R, 0.4 nM.

B11: DVD334 (bispecific antibody)
VH: EVQLLESGGGLVQPGGSLRLSCTASGFTFSSYAMNWVRQAPGKGLEWVSAISGSGGTTFYADSVKGRFTISRDNSRTTLYLQMNSLRAEDTAVYYCAKDLGWSDSYYYYYGMDVWGQGTTVTVSSASTKGPQVQLQESGPGLVKPSQTLSLTCTVSGYSISSDFAWNWIRQPPGKGLEWMGYISYSGNTRYQPSLKSRITISRDTSKNQFFLKLNSVTAADTATYYCVTAGRGFPYWGQGTLVTVSS
VL: DIQMTQFPSSLSASVGDRVTITCRASQGIRNDLGWYQQKPGKAPKRLIYAASRLHRGVPSRFSGSGSGTEFTLTISSLQPEDFATYYCLQHNSYPCSFGQGTKLEIKRTVAAPDIQMTQSPSSMSVSVGDRVTITCHSSQDINSNIGWLQQKPGKSFKGLIYHGTNLDDGVPSRFSGSGSGTDYTLTISSLQPEDFATYYCVQYAQFPWTFGGGTKLEIKR
notes: as for B8
Take B11: the EC50 was 137 nM with EGFR [1] and 0.19 nM with IGF1R.
